Where two headings read alike, the source gives them in different places.

Data set [1] has as its target HCV NS3 full length (bacNS3-5B derived) (Hepatitis C virus strain H) (UniProt P27958).
For data set [2], the target named is HCV NS3 full length (bacNS3 derived) (Hepatitis C virus strain H) (UniProt P27958).
In data set [3] the target is HCV NS3 full length (bacNS3-5B derived) (Hepatitis C virus strain H) (UniProt P27958). The following applies: Km for RNA substrate; helicase strand displacement, PIPES pH 6.5, MnCl2, 37 C.
Sequence of HCV NS3 full length (bacNS3-5B derived) (Hepatitis C virus strain H) (P27958 1027-1657): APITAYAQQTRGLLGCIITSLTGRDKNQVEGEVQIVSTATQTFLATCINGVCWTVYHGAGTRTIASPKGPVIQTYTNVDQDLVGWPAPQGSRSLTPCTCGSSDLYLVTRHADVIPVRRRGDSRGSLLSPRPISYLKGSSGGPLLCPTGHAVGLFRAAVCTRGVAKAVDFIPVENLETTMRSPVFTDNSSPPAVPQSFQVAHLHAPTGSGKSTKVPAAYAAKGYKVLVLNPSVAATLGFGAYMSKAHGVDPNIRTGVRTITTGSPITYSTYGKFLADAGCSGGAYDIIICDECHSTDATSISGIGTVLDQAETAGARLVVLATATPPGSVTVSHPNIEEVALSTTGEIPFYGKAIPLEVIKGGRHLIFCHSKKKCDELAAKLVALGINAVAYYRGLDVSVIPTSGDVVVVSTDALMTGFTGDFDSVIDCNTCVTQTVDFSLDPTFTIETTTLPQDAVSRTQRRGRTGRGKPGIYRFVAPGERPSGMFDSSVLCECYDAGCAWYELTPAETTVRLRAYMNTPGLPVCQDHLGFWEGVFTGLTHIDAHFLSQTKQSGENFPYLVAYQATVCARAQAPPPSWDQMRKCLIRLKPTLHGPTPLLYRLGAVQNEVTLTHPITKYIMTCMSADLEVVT

Sequence of HCV NS3 full length (bacNS3 derived) (Hepatitis C virus strain H) (P27958 1027-1657): as above

For poly(U), the activity was 1050 min⁻¹ in data set [1] (ATPase rate with poly(U), 23 without) and 659 min⁻¹ in data set [2] (ATPase rate with poly(U), 0 without).

As for “standard RNA helicase substrate (3' and 5' single strand regions)”, the activity in data set [3] was 0.5 nM; in data set [1] (helicase catalytic rate), 0.01 min⁻¹; in data set [2] (helicase catalytic rate), 0.003 min⁻¹.
